# Laboratory results taken from the supplement of paper PMC10567573.
# B1: RSPH3 (parent)
# chain: QRLEEQERRHREEKERRKKQQWEI
# B2: KRT18 (parent)
# chain: PQVRDWSHYFKIIEDLRAQIFANT
# Variants of: B1
# Test: protein stability index of a GFP-peptide fusion (GPS, HEK-293T) (PSI 1-6); higher = more stable
# Details: c terminus: a fixed tail appended
# 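Further: lentivirally expressed fusions sorted by FACS into six bins by GFP to DsRed ratio, PSI derived from sequencing read proportions per bin multiplied by bin number.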
row,Variant,protein stability index
1,Q21P,4.6
2,Q21D,5.22
3,Q21I,4.03
4,Q21M,4.02
5,Q21S,3.71
6,Q21K,4.71
7,Q21Y,4.52
8,Q21H,4.39
9,Q21A,4.43
10,Q21V,4.01
11,Q21R,4.46
12,Q21N,4.67
13,Q21G,4.61
14,Q21T,4.68
15,Q21C,4.17
16,Q21E,5.39
17,Q21L,4.53
18,Q21W,4.48
19,Q21F,4.46
20,Q20S,4.8
21,Q20N,4.56
22,Q20H,4.16
23,Q20I,4.6
24,Q20P,4.68
25,Q20G,4.65
26,Q20F,4.19

row,Variant,protein stability index
1,Q20Y,4.19
2,Q20W,4.36
3,Q20C,4.77
4,Q20E,4.8
5,Q20V,3.64
6,Q20D,4.94
7,Q20L,4.35
8,Q20R,4.12
9,Q20A,4.34
10,Q20K,4.22
11,Q20M,3.86
12,R16L,4.67
13,R16E,5.23
14,R16M,5.04
15,R16C,5.12
16,R16S,4.9
17,R16I,5
18,R16H,4.77
19,R16G,4.84
20,R16Y,4.74
21,R16V,5.18
22,R16W,4.02
23,R16K,4.57
24,R16F,4.06
25,R16D,5.37
26,R16A,4.5

row,Variant,protein stability index
1,R16Q,4.75
2,R16T,5.11
3,R16N,4.82
4,R16P,4.97
5,K18P,4.72
6,K18C,4.32
7,K18V,4.18
8,K18F,4.43
9,K18E,4.6
10,K18R,3.87
11,K18W,4.03
12,K18A,4.46
13,K18G,4.71
14,K18Y,3.59
15,K18L,4.27
16,K18N,4.28
17,K18H,4.56
18,K18T,4.68
19,K18D,4.59
20,K18Q,4.83
21,K18M,4.6
22,K18I,4.94
23,K18S,4.49
24,I24K,4.25
25,I24A,5
26,I24D,5

row,Variant,protein stability index
1,I24N,4.68
2,I24G,4.83
3,I24W,4.51
4,I24R,5.14
5,I24C,4.48
6,I24T,4.3
7,I24H,4.46
8,I24E,5.04
9,I24S,4.76
10,I24P,5
11,I24L,4.78
12,I24Q,4.39
13,I24V,5.01
14,I24M,4.56
15,I24F,4.34
16,I24Y,4.82
17,W22M,4.88
18,W22P,4.64
19,W22K,5
20,W22F,4.97
21,W22L,5.22
22,W22T,5.67
23,W22E,5.75
24,W22R,5.43
25,W22S,5.35
26,W22C,5.21

row,Variant,protein stability index
1,W22D,5.52
2,W22V,5.34
3,W22N,5.52
4,W22H,4.97
5,W22G,5.48
6,W22Q,5.15
7,W22Y,4.88
8,W22I,4.38
9,W22A,5.13
10,E23C,4.03
11,E23I,3.6
12,E23A,3.51
13,E23P,4.26
14,E23L,4.21
15,E23G,4.46
16,E23H,4.39
17,E23Y,4.09
18,E23V,3.18
19,E23W,3.67
20,E23Q,3.95
21,E23T,3.96
22,E23S,3.9
23,E23N,4.19
24,E23M,4.2
25,E23K,4.42
26,E23R,4.69

row,Variant,protein stability index
1,E23F,3.42
2,E23D,4.91
3,E15W,3.18
4,E15P,3.62
5,E15T,4.7
6,E15V,4.14
7,E15N,5.12
8,E15S,4.58
9,E15R,3.75
10,E15Q,4.85
11,E15M,4.02
12,E15Y,3.09
13,E15L,4.63
14,K19Y,4.47
15,K19C,4.9
16,K19P,4.62
17,K19S,4.77
18,K19G,4.33
19,K19R,4.78
20,K19H,4.36
21,K19W,3.89
22,K19D,4.98
23,K19L,4.59
24,K19Q,4.64
25,K19V,4.59
26,K19F,4.02

row,Variant,protein stability index
1,K19N,4.59
2,K19T,4.87
3,K19I,4.08
4,K19M,4.79
5,K19E,4.98
6,R17K,4.92
7,R17N,4.76
8,R17A,4.94
9,R17H,4.53
10,R17F,4.41
11,R17P,4.31
12,R17L,5.03
13,R17I,3.87
14,R17D,4.42
15,R17Q,4.82
16,R17S,4.72
17,R17T,4.62
18,R17C,4.59
19,R17E,5.3
20,R17V,4.56
21,R17M,4.77
22,R17G,4.83
23,R17W,4.02
24,R17Y,4.96

# Variants of: B2
# Test: as above
# Details: c terminus: a fixed tail appended
row,Variant,protein stability index
1,V3Y,2.69
2,V3H,1.94
3,V3I,2.05
4,V3E,3.61
5,V3T,2.24
6,V3G,2.13
7,V3D,2.39
8,V3F,2.24
9,V3M,1.84
10,V3K,1.79
11,V3C,2.41
12,V3Q,2.52
13,V3A,1.71
14,V3S,2.44
15,V3P,2.46
16,V3L,2.88
17,V3W,1.7
18,V3N,2.06
19,H8P,1.83
20,H8A,2.06
21,H8S,2.23
22,H8M,2.28
23,H8T,1.6
24,H8I,2.4
25,H8W,1.34
26,H8V,2.17

row,Variant,protein stability index
1,H8D,1.92
2,H8Q,1.83
3,H8L,2.43
4,H8R,1.98
5,H8F,1.59
6,H8N,2.24
7,H8C,1.78
8,H8E,2.49
9,H8Y,2.08
10,H8G,2.58
11,H8K,2.59
12,D5H,1.68
13,D5I,2.46
14,D5W,1.63
15,D5P,1.87
16,D5F,1.88
17,D5N,2.16
18,D5K,3.2
19,D5M,2.57
20,D5S,2.5
21,D5A,2.93
22,D5G,1.99
23,D5V,2.56
24,D5T,2.53
25,D5L,2.88
26,D5C,2.2

row,Variant,protein stability index
1,D5E,2.8
2,D5R,3.09
3,D5Y,2.15
4,D5Q,2.44
5,Y9E,2.55
6,Y9C,1.97
7,Y9D,2.95
8,Y9A,2.24
9,R4A,3.02
10,R4T,2.13
11,R4Y,1.61
12,R4W,2.58
13,R4V,2.09
14,R4M,2.69
15,R4L,1.93
16,R4G,2.37
17,R4K,2.29
18,R4D,2.84
19,R4Q,2.53
20,R4H,2.25
21,R4I,2.32
22,R4S,2.61
23,R4E,2.43
24,R4F,1.6
25,R4N,2.63
26,R4C,1.99

row,Variant,protein stability index
1,R4P,2.47
2,W6R,2.13
3,W6C,1.88
4,W6D,2.61
5,W6T,3.16
6,W6V,1.92
7,W6L,2.22
8,W6P,2.21
9,W6Y,2.13
10,W6I,2.48
11,W6S,2.14
12,W6N,2.18
13,W6K,1.97
14,W6H,1.85
15,W6G,2.14
16,W6Q,2.41
17,W6A,1.69
18,W6E,2.97
19,W6F,2.3
20,W6M,2.15
21,P1T,2.25
22,P1I,2.24
23,P1D,2.83
24,P1Q,2.38
25,P1H,1.99
26,P1M,2.12

row,Variant,protein stability index
1,P1Y,2.22
2,P1G,1.94
3,P1R,2.86
4,P1A,1.31
5,P1C,2.3
6,P1S,2.02
7,P1K,2.42
8,P1F,1.7
9,P1N,2.5
10,P1W,2.86
11,P1V,2.2
12,P1L,1.73
13,P1E,2.13
14,Q2D,2.04
15,Q2V,3.24
16,Q2R,1.77
17,Q2A,2.59
18,Q2H,2.17
19,Q2T,2.31
20,Q2K,2.08
21,Q2G,2.29
22,Q2S,2.42
23,Q2W,1.82
24,Q2E,2.63
25,Q2C,2.67
26,Q2P,3.51

row,Variant,protein stability index
1,Q2L,3.67
2,Q2Y,2.34
3,Q2N,2.41
4,Q2F,2.55
5,Q2M,3.56
6,Q2I,2.92
7,S7V,2.53
8,S7Q,3.49
9,S7M,2.18
10,S7E,2.12
11,S7H,2.36
12,S7A,2.53
13,S7R,1.99
14,S7K,2.36
15,S7T,2.82
16,S7G,3.02
17,S7I,2.13
18,S7Y,1.61
19,S7L,1.52
20,S7W,1.95
21,S7P,2.23
22,S7N,2.08
23,S7C,1.94
24,S7F,1.41
